# Publication PMC5473146
# Experiments:
# MBP-DDX5-GST = MBP-DDX5-GST (Homo sapiens, UniProt P17844 1-614); assay: fluorescence anisotropy
# Dbp2 = Dbp2 (Saccharomyces cerevisiae, UniProt P24783 1-546); assay: fluorescence anisotropy
# Chain of Dbp2 (P24783 whole entry): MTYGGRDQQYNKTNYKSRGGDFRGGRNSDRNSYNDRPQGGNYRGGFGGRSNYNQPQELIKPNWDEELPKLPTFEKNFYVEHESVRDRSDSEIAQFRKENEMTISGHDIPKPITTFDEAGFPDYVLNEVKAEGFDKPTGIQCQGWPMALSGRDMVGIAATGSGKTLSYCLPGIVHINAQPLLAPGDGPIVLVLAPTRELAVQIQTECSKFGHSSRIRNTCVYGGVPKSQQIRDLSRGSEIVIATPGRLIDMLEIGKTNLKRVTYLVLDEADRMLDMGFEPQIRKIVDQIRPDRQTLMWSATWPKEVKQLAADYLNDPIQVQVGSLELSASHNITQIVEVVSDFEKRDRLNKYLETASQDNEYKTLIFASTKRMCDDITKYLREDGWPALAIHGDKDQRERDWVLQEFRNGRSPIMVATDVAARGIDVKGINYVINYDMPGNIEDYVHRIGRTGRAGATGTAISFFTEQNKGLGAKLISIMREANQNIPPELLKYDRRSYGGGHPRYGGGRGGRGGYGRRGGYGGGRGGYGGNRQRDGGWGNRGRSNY
# Chain of MBP-DDX5-GST (P17844 whole entry): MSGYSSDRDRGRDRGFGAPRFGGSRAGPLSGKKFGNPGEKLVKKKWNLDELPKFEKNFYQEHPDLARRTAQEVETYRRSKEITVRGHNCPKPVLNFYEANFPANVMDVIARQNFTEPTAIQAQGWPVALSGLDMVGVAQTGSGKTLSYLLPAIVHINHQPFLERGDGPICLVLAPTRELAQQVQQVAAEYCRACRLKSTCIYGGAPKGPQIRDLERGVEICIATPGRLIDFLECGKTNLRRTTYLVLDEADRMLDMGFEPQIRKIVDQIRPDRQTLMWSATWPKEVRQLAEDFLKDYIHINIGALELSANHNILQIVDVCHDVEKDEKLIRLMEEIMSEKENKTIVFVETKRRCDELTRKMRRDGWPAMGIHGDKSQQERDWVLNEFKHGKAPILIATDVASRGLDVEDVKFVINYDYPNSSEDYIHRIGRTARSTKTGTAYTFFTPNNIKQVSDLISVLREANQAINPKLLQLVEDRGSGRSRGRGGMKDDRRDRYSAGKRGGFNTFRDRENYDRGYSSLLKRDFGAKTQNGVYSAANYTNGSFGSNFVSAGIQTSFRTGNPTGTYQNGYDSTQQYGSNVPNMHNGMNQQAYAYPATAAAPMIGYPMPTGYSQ
binder,measurement,setting,value
AGCACCGUAAAGACGC (ssRNA) [16-nt ssRNA (6-FAM)],binding signal,MBP-DDX5-GST,~4 fold tighter than Dbp2
same,binding signal,Dbp2,~4 fold weaker than MBP-DDX5-GST
